Results taken from patent US8419708B2, “Transdermal drug administration apparatus having microneedles” (Hisamitsu Pharmaceuticals Co., Inc., priority 2006, dated 2013).

Columns and labels:
Type in all cases: in vitro ADME, hairless mice
[1] = Skin permeation with calcein sodium coating and dissolving solution in combination
Protocol: A transdermal drug administration apparatus having microneedles of FIG. 9 was used. 70 mg of calcein sodium as a drug was mixed with 930 μL of a 5% aqueous polymer (polyvinyl pyrrolidone, dextran) solution. The whole surface of microneedles was coated with 25 μL of the solution. The applied solution was dried at room temperature for 12 hours. Moreover, no polymer was added to a coating agent containing only water.
(§1) To measure the amount of permeation, the skin was ablated from the trunks of hairless mice and attached to vertical acrylic cells (2.54 cm^2) with the dermis facing a receptor layer. The cells were loaded in a thermostat set to 37° C. The transdermal drug administration apparatus having microneedles of the present invention was affixed to the stratum corneum. Sampling was conducted at a speed of 5.5 mL/hr. after 1 hour and 2 hours and subsequently at 2-hour intervals until the 6th hour. A phosphate-buffered saline (PBS) was used in the receptor layer. A drug content in the receptor solution obtained each time was measured with a fluorophotometer (excitation: 485, fluorescence: 538).
(§2) Animal type: hairless mice (n=3)
(§3) Receptor solution: 4 mL of PBS (Sampling volume: 200 μL/time)
(§4) Area: 2.54 cm^2 (however, the M.N substrate itself is 1 cm^2)
(§5) Dissolving solution: a saline was added dropwise from a dissolving solution reservoir.

[2] = Skin permeation with drug coating-water-soluble polymer and dissolving solution in combination; details: FIG. 14; for skin permeability: 20 μL dissolving solution in combination
Protocol: A transdermal drug administration apparatus having microneedles of FIG. 9 was used. 400 mg of BSA (bovine serum albumin) and 400 mg of FITC-BSA (fluorescently labeled bovine serum albumin) as drugs were dissolved in 5 mL of water. Likewise, 800 mg of a polymer (PEO, PVA117) was dissolved in 5 mL of water. Both of the solutions were mixed in equal amounts to prepare a coating solution. The whole surface of microneedles was coated with 25 μL of the coating solution. The applied solution was dried with a drier for 30 minutes. Moreover, no polymer was added to a coating agent containing only water.
as §1, with “8th” for “6th”, “496,” for “485,”, “517).” for “538).”
as §2
Receptor solution: 4 mL of PBS (Sampling volume: 500 μL/time)
as §4, §5
PEO: polyethylene oxide (molecular weight: 900,000, concentration: 2.5%)
PVA117S: polyvinyl alcohol (completely saponified, KURARAY CO., LTD.)

[3] = Skin permeation with drug-coated microneedles and dissolving solution in combination (vertical acrylic cells); details: FIG. 12
Protocol: A transdermal drug administration apparatus having microneedles of FIG. 9 was used. 30% aqueous solution was prepared with 100 mg of BSA (bovine serum albumin) and […] of FITC-BSA (fluorescently labeled bovine serum albumin) as drugs and 350 μL of water and used as a mother liquid to prepare 10% and 20% aqueous solutions. The whole surface of microneedles was coated with each of the prepared 10 to 30% aqueous solutions in an amount of 30 μL/patch. The applied solution was dried at room temperature for 12 hours to prepare 3 kinds in total of coated microneedles (→3 mg/patch, 6 mg/patch, and 9 mg/patch) (FIG. 12).
The drug injection models used as controls are shown (FIG. 13), 15 μL of a 20% aqueous drug (FITC-BSA) solution was added to a dissolving solution without coating microneedles with the drug, and after coating with a 5% aqueous PVA203 solution in an amount of 30 μL/patch, the drug was added.
as §1, with “8th” for “6th”
as §2, §3, §4, §5
PVA203: polyvinyl alcohol (partially saponified, polymerization degree: 300, KURARAY CO., LTD.)

| Molecule | permeability-promoting effects by dropwise addition of the dissolving solution ([1]; dextran used in the coating) | permeability-promoting effects by dropwise addition of the dissolving solution ([1]; polyvinyl pyrrolidone used in the coating) | permeability-promoting effects by dropwise addition of the dissolving solution ([1]; regardless of the presence or absence of the polymer in the coating, FIGS. 15-17) | skin permeability ([2]; only water, no polymer in coating composition) | skin permeability ([2]; polyethylene oxide (molecular weight 900,000) mixed into coating composition) | skin permeability-promoting effects brought about by the addition of the dissolving solution ([2]; poorly soluble polymer PVA117 mixed into coating composition) | effect of using the dissolving solution in combination ([3]; amount of drug coating 3 mg (of 3, 6 and 9 mg), dissolving solution fixed to 20 μL) | synergistic effect brought about by the dissolving solution ([3]; amount of drug coating 9 mg, dissolving solution fixed to 20 μL) | skin permeability ([3]; drug-coated microneedles, 20 μL dissolving solution (saline) used in combination) |
| --- | --- | --- | --- | --- | --- | --- | --- | --- | --- |
| O=C(O)CN(CC(=O)O)Cc1cc2c(cc1O)Oc1cc(O)c(CN(CC(=O)O)CC(=O)O)cc1C21OC(=O)c2ccccc21 [calcein sodium] | promoting effects were also observed | promoting effects were also observed | Permeability-promoting effects were observed |  |  |  |  |  |  |
| FITC-BSA: fluorescently labeled bovine serum albumin, used as model drug in the microneedle coating (mixed with BSA) |  |  |  | increased | increased | no skin permeability-promoting effects | highest | no synergistic effect | increased |
